Patent publication US20220016130A1 (MAYO FOUNDATION FOR MEDICAL EDUCATION AND RESEARCH, published 2022)
Values belong to the binder of their own block, whether it stands above or below them.

Columns and labels:
BRD2 = target: T1, BRD2 (human, UniProt P25440 1-801); assay: co-IP of endogenous proteins in PC-3 cells
T1 construct: One entry covers endogenous and FLAG-tagged full-length BRD2; also called FLAG-BRD2; Flag-BRD2
Protocol: (§1) To immunoprecipitate the ectopically expressed FLAG-tagged proteins, transfected cells were lysed 24 hours post-transfection in BC100 buffer. The whole-cell lysates were immunoprecipitated with the monoclonal anti-FLAG antibody-conjugated M2 agarose beads (Sigma-Aldrich) at 4° C. overnight. After three washes with lysis buffer, followed by two washes with BC100 buffer, the bound proteins were eluted using FLAG-Peptide (Sigma-Aldrich) prepared in BC100 for 3 hours at 4° C. The eluted protein sample was resolved by SDS-PAGE. To immunoprecipitate the endogenous proteins, cells were lysed with 1× cell lysis buffer (Cell Signaling Technology), and the lysate was centrifuged. The supernatant was precleared with protein A/G beads (Sigma-Aldrich) and incubated with the indicated antibody and protein A/G beads at 4° C. overnight. Beads were washed five times with lysis buffer and resuspended in sample buffer and analyzed by SDS-PAGE.

BRD3 = target: T2, BRD3 (human, UniProt Q15059 1-726); assay: co-IP of endogenous proteins in PC-3 cells
T2 construct: One entry covers endogenous and FLAG-tagged full-length BRD3; also called FLAG-BRD3; Flag-BRD3
Protocol: as §1

BRD4 [1] = target: T3, BRD4 (human, UniProt O60885 1-1362); assay: co-IP from 293T cells transfected with Flag-tagged USPs (DUB3 and other DUBs) and HA-BRD4
T3 construct: One entry covers endogenous, Flag-tagged and HA-tagged full-length BRD4; also called FLAG-BRD4; Flag-BRD4
Protocol: as §1

BRD4 [2] = target: T3, BRD4; assay: co-IP from 293T cells transfected with Flag-tagged USPs and HA-BRD4
Protocol: as §1

BRD4 [3] = target: T3, BRD4; assay: GST pull-down of Flag-BRD4 from PC-3 cells
NCOR2 = NCOR2 (human, UniProt Q9Y618 1-2514, limits assumed); assay: reciprocal co-IP of endogenous proteins in C4-2 cells
Protocol: as §1

T1 sequence (P25440 whole entry): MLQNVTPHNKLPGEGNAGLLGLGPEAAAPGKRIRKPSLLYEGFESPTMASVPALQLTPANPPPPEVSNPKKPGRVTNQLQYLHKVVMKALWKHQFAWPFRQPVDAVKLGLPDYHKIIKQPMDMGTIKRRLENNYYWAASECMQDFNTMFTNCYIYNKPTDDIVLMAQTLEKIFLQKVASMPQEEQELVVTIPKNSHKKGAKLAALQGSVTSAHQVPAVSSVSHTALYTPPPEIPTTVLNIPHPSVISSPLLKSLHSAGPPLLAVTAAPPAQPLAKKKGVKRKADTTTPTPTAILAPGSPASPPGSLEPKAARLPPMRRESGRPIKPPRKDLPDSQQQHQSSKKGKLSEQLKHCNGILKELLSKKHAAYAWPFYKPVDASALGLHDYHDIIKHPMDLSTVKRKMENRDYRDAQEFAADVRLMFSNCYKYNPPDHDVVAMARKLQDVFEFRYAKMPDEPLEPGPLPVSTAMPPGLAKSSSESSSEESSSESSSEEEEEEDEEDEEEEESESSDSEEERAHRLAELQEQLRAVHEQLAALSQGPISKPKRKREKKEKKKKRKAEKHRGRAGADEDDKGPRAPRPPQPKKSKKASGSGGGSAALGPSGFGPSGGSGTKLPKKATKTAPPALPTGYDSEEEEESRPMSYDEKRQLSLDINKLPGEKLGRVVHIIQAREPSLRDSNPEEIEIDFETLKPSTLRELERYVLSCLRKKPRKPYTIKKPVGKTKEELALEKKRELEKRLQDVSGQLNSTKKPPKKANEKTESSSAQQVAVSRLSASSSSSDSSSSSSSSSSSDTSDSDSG
T2 sequence (Q15059 whole entry): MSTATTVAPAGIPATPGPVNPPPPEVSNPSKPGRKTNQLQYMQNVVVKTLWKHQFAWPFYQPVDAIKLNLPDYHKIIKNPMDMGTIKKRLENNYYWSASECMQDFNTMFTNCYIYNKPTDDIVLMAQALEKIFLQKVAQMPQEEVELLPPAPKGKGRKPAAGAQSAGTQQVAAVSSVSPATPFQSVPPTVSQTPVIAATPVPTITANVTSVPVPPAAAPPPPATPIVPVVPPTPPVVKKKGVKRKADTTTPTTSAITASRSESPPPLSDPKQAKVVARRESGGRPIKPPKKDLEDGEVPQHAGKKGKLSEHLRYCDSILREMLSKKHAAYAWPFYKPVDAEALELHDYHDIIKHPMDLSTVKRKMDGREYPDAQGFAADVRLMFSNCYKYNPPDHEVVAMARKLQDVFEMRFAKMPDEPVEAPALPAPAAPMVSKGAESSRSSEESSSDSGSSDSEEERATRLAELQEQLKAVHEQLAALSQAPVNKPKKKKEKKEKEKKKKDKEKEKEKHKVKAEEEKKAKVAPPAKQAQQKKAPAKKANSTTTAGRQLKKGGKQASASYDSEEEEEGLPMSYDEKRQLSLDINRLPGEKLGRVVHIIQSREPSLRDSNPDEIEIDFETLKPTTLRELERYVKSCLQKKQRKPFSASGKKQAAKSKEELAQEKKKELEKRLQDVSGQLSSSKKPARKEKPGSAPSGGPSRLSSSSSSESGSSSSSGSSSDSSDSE
Chain of NCOR2 (Q9Y618 whole entry): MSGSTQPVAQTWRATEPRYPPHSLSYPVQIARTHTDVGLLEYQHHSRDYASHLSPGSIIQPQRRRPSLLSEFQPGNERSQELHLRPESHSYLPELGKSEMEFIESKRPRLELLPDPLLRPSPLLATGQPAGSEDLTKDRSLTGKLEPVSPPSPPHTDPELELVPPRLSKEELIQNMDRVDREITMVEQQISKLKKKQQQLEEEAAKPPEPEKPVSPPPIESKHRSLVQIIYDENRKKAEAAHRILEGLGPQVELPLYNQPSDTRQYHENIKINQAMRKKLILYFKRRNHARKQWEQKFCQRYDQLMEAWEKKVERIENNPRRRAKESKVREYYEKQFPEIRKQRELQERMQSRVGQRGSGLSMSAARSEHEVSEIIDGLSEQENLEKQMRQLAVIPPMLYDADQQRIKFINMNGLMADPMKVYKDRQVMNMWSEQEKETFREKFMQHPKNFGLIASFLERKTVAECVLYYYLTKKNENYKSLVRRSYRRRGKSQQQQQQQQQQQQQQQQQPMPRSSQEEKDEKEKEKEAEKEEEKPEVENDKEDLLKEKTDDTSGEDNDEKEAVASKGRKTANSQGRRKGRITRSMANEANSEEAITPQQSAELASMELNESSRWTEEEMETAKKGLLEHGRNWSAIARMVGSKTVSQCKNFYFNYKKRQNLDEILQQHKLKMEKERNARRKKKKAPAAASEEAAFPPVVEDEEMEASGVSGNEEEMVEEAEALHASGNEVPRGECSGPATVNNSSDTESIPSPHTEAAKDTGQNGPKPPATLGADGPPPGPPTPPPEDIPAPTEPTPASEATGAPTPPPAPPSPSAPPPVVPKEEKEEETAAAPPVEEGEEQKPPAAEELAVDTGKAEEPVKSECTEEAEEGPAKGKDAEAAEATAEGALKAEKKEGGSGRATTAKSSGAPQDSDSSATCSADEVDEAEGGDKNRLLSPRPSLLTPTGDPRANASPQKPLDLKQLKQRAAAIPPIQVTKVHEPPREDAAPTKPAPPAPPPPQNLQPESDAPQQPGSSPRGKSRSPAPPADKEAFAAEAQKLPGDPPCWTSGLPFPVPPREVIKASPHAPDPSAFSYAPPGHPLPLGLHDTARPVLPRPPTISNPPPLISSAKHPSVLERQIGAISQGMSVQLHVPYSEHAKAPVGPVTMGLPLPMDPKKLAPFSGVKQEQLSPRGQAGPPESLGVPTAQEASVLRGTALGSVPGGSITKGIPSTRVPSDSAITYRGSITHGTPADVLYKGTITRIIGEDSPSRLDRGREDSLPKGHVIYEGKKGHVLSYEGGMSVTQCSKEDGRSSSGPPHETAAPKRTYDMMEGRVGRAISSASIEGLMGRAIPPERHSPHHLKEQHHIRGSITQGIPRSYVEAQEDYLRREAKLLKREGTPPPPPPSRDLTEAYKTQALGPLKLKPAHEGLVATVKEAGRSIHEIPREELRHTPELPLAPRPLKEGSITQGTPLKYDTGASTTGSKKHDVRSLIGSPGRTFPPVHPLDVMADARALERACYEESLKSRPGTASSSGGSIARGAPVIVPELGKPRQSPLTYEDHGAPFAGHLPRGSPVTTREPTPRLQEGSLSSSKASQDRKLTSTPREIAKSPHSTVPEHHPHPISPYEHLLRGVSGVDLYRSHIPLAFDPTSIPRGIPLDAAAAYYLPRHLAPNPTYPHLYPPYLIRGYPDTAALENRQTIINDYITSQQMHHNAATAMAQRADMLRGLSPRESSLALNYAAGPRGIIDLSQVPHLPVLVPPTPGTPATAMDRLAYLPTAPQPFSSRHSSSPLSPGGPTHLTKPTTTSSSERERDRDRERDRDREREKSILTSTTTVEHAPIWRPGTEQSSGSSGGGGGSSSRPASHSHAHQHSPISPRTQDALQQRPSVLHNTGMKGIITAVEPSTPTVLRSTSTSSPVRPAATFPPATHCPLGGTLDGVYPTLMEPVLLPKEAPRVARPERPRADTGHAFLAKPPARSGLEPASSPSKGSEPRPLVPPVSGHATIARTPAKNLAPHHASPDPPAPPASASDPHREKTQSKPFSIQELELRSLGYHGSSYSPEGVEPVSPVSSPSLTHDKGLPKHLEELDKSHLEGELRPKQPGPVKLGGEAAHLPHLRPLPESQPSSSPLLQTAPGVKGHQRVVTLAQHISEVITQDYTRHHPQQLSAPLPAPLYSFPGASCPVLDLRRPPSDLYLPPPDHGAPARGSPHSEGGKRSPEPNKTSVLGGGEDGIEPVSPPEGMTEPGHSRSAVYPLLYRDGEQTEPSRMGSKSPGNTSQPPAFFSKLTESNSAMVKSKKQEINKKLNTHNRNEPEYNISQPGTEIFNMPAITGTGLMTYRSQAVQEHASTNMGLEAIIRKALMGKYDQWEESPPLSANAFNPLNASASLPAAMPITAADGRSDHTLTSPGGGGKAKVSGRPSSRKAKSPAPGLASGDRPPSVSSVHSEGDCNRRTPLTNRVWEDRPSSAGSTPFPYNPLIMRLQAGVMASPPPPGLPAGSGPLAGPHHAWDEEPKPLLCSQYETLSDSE

binding result (BRD4 [2]): no binding
B3: Flag-USP28 (enzyme, UniProt Q96RU2 1-1077, looked up)
chain: MTAELQQDDAAGAADGHGSSCQMLLNQLREITGIQDPSFLHEALKASNGDITQAVSLLTDERVKEPSQDTVATEPSEVEGSAANKEVLAKVIDLTHDNKDDLQAAIALSLLESPKIQADGRDLNRMHEATSAETKRSKRKRCEVWGENPNPNDWRRVDGWPVGLKNVGNTCWFSAVIQSLFQLPEFRRLVLSYSLPQNVLENCRSHTEKRNIMFMQELQYLFALMMGSNRKFVDPSAALDLLKGAFRSSEEQQQDVSEFTHKLLDWLEDAFQLAVNVNSPRNKSENPMVQLFYGTFLTEGVREGKPFCNNETFGQYPLQVNGYRNLDECLEGAMVEGDVELLPSDHSVKYGQERWFTKLPPVLTFELSRFEFNQSLGQPEKIHNKLEFPQIIYMDRYMYRSKELIRNKRECIRKLKEEIKILQQKLERYVKYGSGPARFPLPDMLKYVIEFASTKPASESCPPESDTHMTLPLSSVHCSVSDQTSKESTSTESSSQDVESTFSSPEDSLPKSKPLTSSRSSMEMPSQPAPRTVTDEEINFVKTCLQRWRSEIEQDIQDLKTCIASTTQTIEQMYCDPLLRQVPYRLHAVLVHEGQANAGHYWAYIYNQPRQSWLKYNDISVTESSWEEVERDSYGGLRNVSAYCLMYINDKLPYFNAEAAPTESDQMSEVEALSVELKHYIQEDNWRFEQEVEEWEEEQSCKIPQMESSTNSSSQDYSTSQEPSVASSHGVRCLSSEHAVIVKEQTAQAIANTARAYEKSGVEAALSEVMLSPAMQGVILAIAKARQTFDRDGSEAGLIKAFHEEYSRLYQLAKETPTSHSDPRLQHVLVYFFQNEAPKRVVERTLLEQFADKNLSYDERSISIMKVAQAKLKEIGPDDMNMEEYKKWHEDYSLFRKVSVYLLTGLELYQKGKYQEALSYLVYAYQSNAALLMKGPRRGVKESVIALYRRKCLLELNAKAASLFETNDDHSVTEGINVMNELIIPCIHLIINNDISKDDLDAIEVMRNHWCSYLGQDIAENLQLCLGEFLPRLLDPSAEIIVLKEPPTIRPNSPYDLCSRFAAVMESIQGVSTVTVK
notes: not shown: Flag tag

binding result (BRD4 [2]): no binding
B4: Flag-USP49 (enzyme, UniProt Q70CQ1 1-688, looked up)
chain: MDRCKHVGRLRLAQDHSILNPQKWCCLECATTESVWACLKCSHVACGRYIEDHALKHFEETGHPLAMEVRDLYVFCYLCKDYVLNDNPEGDLKLLRSSLLAVRGQKQDTPVRRGRTLRSMASGEDVVLPQRAPQGQPQMLTALWYRRQRLLARTLRLWFEKSSRGQAKLEQRRQEEALERKKEEARRRRREVKRRLLEELASTPPRKSARLLLHTPRDAGPAASRPAALPTSRRVPAATLKLRRQPAMAPGVTGLRNLGNTCYMNSILQVLSHLQKFRECFLNLDPSKTEHLFPKATNGKTQLSGKPTNSSATELSLRNDRAEACEREGFCWNGRASISRSLELIQNKEPSSKHISLCRELHTLFRVMWSGKWALVSPFAMLHSVWSLIPAFRGYDQQDAQEFLCELLHKVQQELESEGTTRRILIPFSQRKLTKQVLKVVNTIFHGQLLSQVTCISCNYKSNTIEPFWDLSLEFPERYHCIEKGFVPLNQTECLLTEMLAKFTETEALEGRIYACDQCNSKRRKSNPKPLVLSEARKQLMIYRLPQVLRLHLKRFRWSGRNHREKIGVHVVFDQVLTMEPYCCRDMLSSLDKETFAYDLSAVVMHHGKGFGSGHYTAYCYNTEGGFWVHCNDSKLNVCSVEEVCKTQAYILFYTQRTVQGNARISETHLQAQVQSSNNDEGRPQTFS
notes: not shown: Flag tag

binding result (BRD4 [3]): no binding
B5: GST-DUB3 C-terminal fragment (other, UniProt Q6R6M4 399-530, looked up)
chain: TDRRATQGELKRDHPCLQAPELDERLVERATQESTLDHWKFPQEQNKTKPEFNVRKVEGTLPPNVLVIHQSKYKCGMKNHHPEQQSSLLNLSSTTRTDQESVNTGTLASLQGRTRRSKGKNKHSKRALLVCQ
notes: also called C-terminal fragment of DUB3; not shown: glutathione S-transferase (GST) tag

binding result (BRD4 [2]): no binding
B6: Flag-USP13 (enzyme, UniProt Q92995 1-863, looked up)
chain: MQRRGALFGMPGGSGGRKMAAGDIGELLVPHMPTIRVPRSGDRVYKNECAFSYDSPNSEGGLYVCMNTFLAFGREHVERHFRKTGQSVYMHLKRHVREKVRGASGGALPKRRNSKIFLDLDTDDDLNSDDYEYEDEAKLVIFPDHYEIALPNIEELPALVTIACDAVLSSKSPYRKQDPDTWENELPVSKYANNLTQLDNGVRIPPSGWKCARCDLRENLWLNLTDGSVLCGKWFFDSSGGNGHALEHYRDMGYPLAVKLGTITPDGADVYSFQEEEPVLDPHLAKHLAHFGIDMLHMHGTENGLQDNDIKLRVSEWEVIQESGTKLKPMYGPGYTGLKNLGNSCYLSSVMQAIFSIPEFQRAYVGNLPRIFDYSPLDPTQDFNTQMTKLGHGLLSGQYSKPPVKSELIEQVMKEEHKPQQNGISPRMFKAFVSKSHPEFSSNRQQDAQEFFLHLVNLVERNRIGSENPSDVFRFLVEERIQCCQTRKVRYTERVDYLMQLPVAMEAATNKDELIAYELTRREAEANRRPLPELVRAKIPFSACLQAFSEPENVDDFWSSALQAKSAGVKTSRFASFPEYLVVQIKKFTFGLDWVPKKFDVSIDMPDLLDINHLRARGLQPGEEELPDISPPIVIPDDSKDRLMNQLIDPSDIDESSVMQLAEMGFPLEACRKAVYFTGNMGAEVAFNWIIVHMEEPDFAEPLTMPGYGGAASAGASVFGASGLDNQPPEEIVAIITSMGFQRNQAIQALRATNNNLERALDWIFSHPEFEEDSDFVIEMENNANANIISEAKPEGPRVKDGSGTYELFAFISHMGTSTMSGHYICHIKKEGRWVIYNDHKVCASERPPKDLGYMYFYRRIPS
notes: not shown: Flag tag

The next lines start with the binder.

B1: DUB3 (enzyme, human, UniProt Q6R6M4 1-530, looked up)
chain: MEDDSLYLGGEWQFNHFSKLTSSRPDAAFAEIQRTSLPEKSPLSSEARVDLCDDLAPVARQLAPRKKLPLSSRRPAAVGAGLQNMGNTCYENASLQCLTYTPPLANYMLSREHSQTCQRPKCCMLCTMQAHITWALHSPGHVIQPSQALAAGFHRGKQEDAHEFLMFTVDAMKKACLPGHKQVDHHSKDTTLIHQIFGGCWRSQIKCLHCHGISDTFDPYLDIALDIQAAQSVKQALEQLVKPEELNGENAYHCGLCLQRAPASKTLTLHTSAKVLILVLKRFSDVTGNKLAKNVQYPECLDMQPYMSQQNTGPLVYVLYAVLVHAGWSCHDGHYFSYVKAQEGQWYKMDDAKVTACSITSVLSQQAYVLFYIQKSEWERHSESVSRGREPRALGAEDTDRRATQGELKRDHPCLQAPELDERLVERATQESTLDHWKFPQEQNKTKPEFNVRKVEGTLPPNVLVIHQSKYKCGMKNHHPEQQSSLLNLSSTTRTDQESVNTGTLASLQGRTRRSKGKNKHSKRALLVCQ
notes: One entry covers endogenous, HA-tagged and Flag-tagged full-length DUB3; also called USP17L2; USP17
binding result (BRD2): no binding | binding result (BRD3): no binding | binding result (BRD4 [1]): binds

B2: Flag-USP15 (enzyme, UniProt Q9Y4E8 1-981, looked up)
chain: MAEGGAADLDTQRSDIATLLKTSLRKGDTWYLVDSRWFKQWKKYVGFDSWDKYQMGDQNVYPGPIDNSGLLKDGDAQSLKEHLIDELDYILLPTEGWNKLVSWYTLMEGQEPIARKVVEQGMFVKHCKVEVYLTELKLCENGNMNNVVTRRFSKADTIDTIEKEIRKIFSIPDEKETRLWNKYMSNTFEPLNKPDSTIQDAGLYQGQVLVIEQKNEDGTWPRGPSTPKSPGASNFSTLPKISPSSLSNNYNNMNNRNVKNSNYCLPSYTAYKNYDYSEPGRNNEQPGLCGLSNLGNTCFMNSAIQCLSNTPPLTEYFLNDKYQEELNFDNPLGMRGEIAKSYAELIKQMWSGKFSYVTPRAFKTQVGRFAPQFSGYQQQDCQELLAFLLDGLHEDLNRIRKKPYIQLKDADGRPDKVVAEEAWENHLKRNDSIIVDIFHGLFKSTLVCPECAKISVTFDPFCYLTLPLPMKKERTLEVYLVRMDPLTKPMQYKVVVPKIGNILDLCTALSALSGIPADKMIVTDIYNHRFHRIFAMDENLSSIMERDDIYVFEININRTEDTEHVIIPVCLREKFRHSSYTHHTGSSLFGQPFLMAVPRNNTEDKLYNLLLLRMCRYVKISTETEETEGSLHCCKDQNINGNGPNGIHEEGSPSEMETDEPDDESSQDQELPSENENSQSEDSVGGDNDSENGLCTEDTCKGQLTGHKKRLFTFQFNNLGNTDINYIKDDTRHIRFDDRQLRLDERSFLALDWDPDLKKRYFDENAAEDFEKHESVEYKPPKKPFVKLKDCIELFTTKEKLGAEDPWYCPNCKEHQQATKKLDLWSLPPVLVVHLKRFSYSRYMRDKLDTLVDFPINDLDMSEFLINPNAGPCRYNLIAVSNHYGGMGGGHYTAFAKNKDDGKWYYFDDSSVSTASEDQIVSKAAYVLFYQRQDTFSGTGFFPLDRETKGASAATGIPLESDEDSNDNDNDIENENCMHTN
notes: not shown: Flag tag
binding result (BRD4 [2]): no binding

B7: HDAC10 (enzyme, human, UniProt Q969S8 1-669, looked up)
chain: MGTALVYHEDMTATRLLWDDPECEIERPERLTAALDRLRQRGLEQRCLRLSAREASEEELGLVHSPEYVSLVRETQVLGKEELQALSGQFDAIYFHPSTFHCARLAAGAGLQLVDAVLTGAVQNGLALVRPPGHHGQRAAANGFCVFNNVAIAAAHAKQKHGLHRILVVDWDVHHGQGIQYLFEDDPSVLYFSWHRYEHGRFWPFLRESDADAVGRGQGLGFTVNLPWNQVGMGNADYVAAFLHLLLPLAFEFDPELVLVSAGFDSAIGDPEGQMQATPECFAHLTQLLQVLAGGRVCAVLEGGYHLESLAESVCMTVQTLLGDPAPPLSGPMAPCQSALESIQSARAAQAPHWKSLQQQDVTAVPMSPSSHSPEGRPPPLLPGGPVCKAAASAPSSLLDQPCLCPAPSVRTAVALTTPDITLVLPPDVIQQEASALREETEAWARPHESLAREEALTALGKLLYLLDGMLDGQVNSGIAATPASAAAATLDVAVRRGLSHGAQRLLCVALGQLDRPPDLAHDGRSLWLNIRGKEAAALSMFHVSTPLPVMTGGFLSCILGLVLPLAYGFQPDLVLVALGPGHGLQGPHAALLAAMLRGLAGGRVLALLEENSTPQLAGILARVLNGEAPPSLGPSSVASPEDVQALMYLRGQLEPQWKMLQCHPHLVA
binding result (NCOR2): binds
